In publication doi:10.1101/2022.11.23.517751:

Molecular target: VZV gB[H527P] on extracellular vesicles (EVs) from BHK-21 cells (varicella-zoster virus (VZV)) (UniProt Q4JR05)
Assay: cryo-EM structure

Substance: VZV gB[H527P] on extracellular vesicles (EVs) from BHK-21 cells (from UniProt Q4JR05 72-931) (natural protein)
- stoichiometry N: 3
